Source: patent publication US12679878B2, “CRF2 receptor agonists and their use in therapy” (SANOFI, priority 2020, dated 2026)
Starred links: 1 amine or outer side, 2 acyl side, 3 side chain; linkers in the order of their positions; H or OH if unused. Non-standard residues stand in square brackets, D forms with d. Groups on a side chain read outwards from the residue. No end group written: not given here. *: point of attachment. C18 diacid = O=C(O)CCCCCCCCCCCCCCCCC(=O)*; γGlu = O=C(O)[C@H](CCC(=O)[*:2])N[*:1]; Palmitoyl = CCCCCCCCCCCCCCCC(=O)*; AEEA = NCCOCCOCC(=O)O; Aib = CC(C)(N)C(=O)O

B1: SEQ ID NO: 70 (peptide)
peptide: IVLSLDVPIKLK([AEEA-AEEA-γGlu-C18 diacid])QILLEQERQKKQREQAETN[Aib]QILAQV-NH2
modifications: N-terminus assumed
SMILES: CC[C@H](C)[C@H](N)C(=O)N[C@H](C(=O)N[C@@H](CC(C)C)C(=O)N[C@@H](CO)C(=O)N[C@@H](CC(C)C)C(=O)N[C@@H](CC(=O)O)C(=O)N[C@H](C(=O)N1CCC[C@H]1C(=O)N[C@H](C(=O)N[C@@H](CCCCN)C(=O)N[C@@H](CC(C)C)C(=O)N[C@@H](CCCCNC(=O)COCCOCCNC(=O)COCCOCCNC(=O)CC[C@H](NC(=O)CCCCCCCCCCCCCCCCC(=O)O)C(=O)O)C(=O)N[C@@H](CCC(N)=O)C(=O)N[C@H](C(=O)N[C@@H](CC(C)C)C(=O)N[C@@H](CC(C)C)C(=O)N[C@@H](CCC(=O)O)C(=O)N[C@@H](CCC(N)=O)C(=O)N[C@@H](CCC(=O)O)C(=O)N[C@@H](CCCNC(=N)N)C(=O)N[C@@H](CCC(N)=O)C(=O)N[C@@H](CCCCN)C(=O)N[C@@H](CCCCN)C(=O)N[C@@H](CCC(N)=O)C(=O)N[C@@H](CCCNC(=N)N)C(=O)N[C@@H](CCC(=O)O)C(=O)N[C@@H](CCC(N)=O)C(=O)N[C@@H](C)C(=O)N[C@@H](CCC(=O)O)C(=O)N[C@H](C(=O)N[C@@H](CC(N)=O)C(=O)NC(C)(C)C(=O)N[C@@H](CCC(N)=O)C(=O)N[C@H](C(=O)N[C@@H](CC(C)C)C(=O)N[C@@H](C)C(=O)N[C@@H](CCC(N)=O)C(=O)N[C@H](C(N)=O)C(C)C)[C@@H](C)CC)[C@@H](C)O)[C@@H](C)CC)[C@@H](C)CC)C(C)C)C(C)C
B2: SEQ ID NO: 69 (peptide)
peptide: IVLSLDVPIKLK([AEEA-AEEA-γGlu-C18 diacid])K[Aib]LLEQERQKKQREQAETNKQILAQV-NH2
modifications: N-terminus assumed
SMILES: CC[C@H](C)[C@H](N)C(=O)N[C@H](C(=O)N[C@@H](CC(C)C)C(=O)N[C@@H](CO)C(=O)N[C@@H](CC(C)C)C(=O)N[C@@H](CC(=O)O)C(=O)N[C@H](C(=O)N1CCC[C@H]1C(=O)N[C@H](C(=O)N[C@@H](CCCCN)C(=O)N[C@@H](CC(C)C)C(=O)N[C@@H](CCCCNC(=O)COCCOCCNC(=O)COCCOCCNC(=O)CC[C@H](NC(=O)CCCCCCCCCCCCCCCCC(=O)O)C(=O)O)C(=O)N[C@@H](CCCCN)C(=O)NC(C)(C)C(=O)N[C@@H](CC(C)C)C(=O)N[C@@H](CC(C)C)C(=O)N[C@@H](CCC(=O)O)C(=O)N[C@@H](CCC(N)=O)C(=O)N[C@@H](CCC(=O)O)C(=O)N[C@@H](CCCNC(=N)N)C(=O)N[C@@H](CCC(N)=O)C(=O)N[C@@H](CCCCN)C(=O)N[C@@H](CCCCN)C(=O)N[C@@H](CCC(N)=O)C(=O)N[C@@H](CCCNC(=N)N)C(=O)N[C@@H](CCC(=O)O)C(=O)N[C@@H](CCC(N)=O)C(=O)N[C@@H](C)C(=O)N[C@@H](CCC(=O)O)C(=O)N[C@H](C(=O)N[C@@H](CC(N)=O)C(=O)N[C@@H](CCCCN)C(=O)N[C@@H](CCC(N)=O)C(=O)N[C@H](C(=O)N[C@@H](CC(C)C)C(=O)N[C@@H](C)C(=O)N[C@@H](CCC(N)=O)C(=O)N[C@H](C(N)=O)C(C)C)[C@@H](C)CC)[C@@H](C)O)[C@@H](C)CC)C(C)C)C(C)C
B3: SEQ ID NO: 4 (peptide)
peptide: IVLSLDVPIGLK([γGlu-Palmitoyl])QKLLKQEKQEKEKQQAETNAKILAQV-NH2
modifications: N-terminus assumed
SMILES: CCCCCCCCCCCCCCCC(=O)N[C@@H](CCC(=O)NCCCC[C@H](NC(=O)[C@H](CC(C)C)NC(=O)CNC(=O)[C@@H](NC(=O)[C@@H]1CCCN1C(=O)[C@@H](NC(=O)[C@H](CC(=O)O)NC(=O)[C@H](CC(C)C)NC(=O)[C@H](CO)NC(=O)[C@H](CC(C)C)NC(=O)[C@@H](NC(=O)[C@@H](N)[C@@H](C)CC)C(C)C)C(C)C)[C@@H](C)CC)C(=O)N[C@@H](CCC(N)=O)C(=O)N[C@@H](CCCCN)C(=O)N[C@@H](CC(C)C)C(=O)N[C@@H](CC(C)C)C(=O)N[C@@H](CCCCN)C(=O)N[C@@H](CCC(N)=O)C(=O)N[C@@H](CCC(=O)O)C(=O)N[C@@H](CCCCN)C(=O)N[C@@H](CCC(N)=O)C(=O)N[C@@H](CCC(=O)O)C(=O)N[C@@H](CCCCN)C(=O)N[C@@H](CCC(=O)O)C(=O)N[C@@H](CCCCN)C(=O)N[C@@H](CCC(N)=O)C(=O)N[C@@H](CCC(N)=O)C(=O)N[C@@H](C)C(=O)N[C@@H](CCC(=O)O)C(=O)N[C@H](C(=O)N[C@@H](CC(N)=O)C(=O)N[C@@H](C)C(=O)N[C@@H](CCCCN)C(=O)N[C@H](C(=O)N[C@@H](CC(C)C)C(=O)N[C@@H](C)C(=O)N[C@@H](CCC(N)=O)C(=O)N[C@H](C(N)=O)C(C)C)[C@@H](C)CC)[C@@H](C)O)C(=O)O
B4: SEQ ID NO: 68 (peptide)
peptide: IVLSLDVPIKLK([AEEA-AEEA-γGlu-C18 diacid])QILLEQERQKKQREQAETNKQILAQV-NH2
modifications: N-terminus assumed
SMILES: CC[C@H](C)[C@H](N)C(=O)N[C@H](C(=O)N[C@@H](CC(C)C)C(=O)N[C@@H](CO)C(=O)N[C@@H](CC(C)C)C(=O)N[C@@H](CC(=O)O)C(=O)N[C@H](C(=O)N1CCC[C@H]1C(=O)N[C@H](C(=O)N[C@@H](CCCCN)C(=O)N[C@@H](CC(C)C)C(=O)N[C@@H](CCCCNC(=O)COCCOCCNC(=O)COCCOCCNC(=O)CC[C@H](NC(=O)CCCCCCCCCCCCCCCCC(=O)O)C(=O)O)C(=O)N[C@@H](CCC(N)=O)C(=O)N[C@H](C(=O)N[C@@H](CC(C)C)C(=O)N[C@@H](CC(C)C)C(=O)N[C@@H](CCC(=O)O)C(=O)N[C@@H](CCC(N)=O)C(=O)N[C@@H](CCC(=O)O)C(=O)N[C@@H](CCCNC(=N)N)C(=O)N[C@@H](CCC(N)=O)C(=O)N[C@@H](CCCCN)C(=O)N[C@@H](CCCCN)C(=O)N[C@@H](CCC(N)=O)C(=O)N[C@@H](CCCNC(=N)N)C(=O)N[C@@H](CCC(=O)O)C(=O)N[C@@H](CCC(N)=O)C(=O)N[C@@H](C)C(=O)N[C@@H](CCC(=O)O)C(=O)N[C@H](C(=O)N[C@@H](CC(N)=O)C(=O)N[C@@H](CCCCN)C(=O)N[C@@H](CCC(N)=O)C(=O)N[C@H](C(=O)N[C@@H](CC(C)C)C(=O)N[C@@H](C)C(=O)N[C@@H](CCC(N)=O)C(=O)N[C@H](C(N)=O)C(C)C)[C@@H](C)CC)[C@@H](C)O)[C@@H](C)CC)[C@@H](C)CC)C(C)C)C(C)C

biological target: human corticotropin-releasing factor 2α (CRF2 α receptor) (human), Q13324; test: cell-based or functional assay
Sequence (Q13324 20-411): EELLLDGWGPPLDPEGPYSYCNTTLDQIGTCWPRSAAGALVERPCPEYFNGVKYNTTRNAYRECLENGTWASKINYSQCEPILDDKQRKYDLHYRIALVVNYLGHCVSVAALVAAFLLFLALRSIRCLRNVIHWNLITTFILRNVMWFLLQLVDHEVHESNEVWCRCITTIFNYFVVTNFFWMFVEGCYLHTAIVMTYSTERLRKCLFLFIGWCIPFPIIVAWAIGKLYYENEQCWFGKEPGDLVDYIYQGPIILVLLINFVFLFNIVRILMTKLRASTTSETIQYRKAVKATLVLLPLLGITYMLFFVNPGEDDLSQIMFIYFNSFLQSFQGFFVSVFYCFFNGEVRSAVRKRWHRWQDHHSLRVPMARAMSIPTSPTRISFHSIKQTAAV

EC50 [nM], 0% HSA | Binder
0.91 nM | B1
0.61 nM | B2
0.04 nM | B3
0.2 nM | B4
